According to publication PMC11514447, “Eukaryotic initiation factor 4B is a multi-functional RNA binding protein that regulates histone mRNAs”:

Target: eIF4B (UniProt P23588 1-611)
Test: fluorescence polarization; 2 mM ATP, 2 mM Mg2+; 20 mM HEPES/KOH pH 7.5, 100 mM KCl, 1 mM TCEP, 2 mM ATP, 2 mM MgCl2, 40 nM FAM-RNA, 60 min, 25 C; Kd values only in figures (one-site fit, n=3)
Details: protein: recombinant

Sequence of eIF4B (P23588 whole entry): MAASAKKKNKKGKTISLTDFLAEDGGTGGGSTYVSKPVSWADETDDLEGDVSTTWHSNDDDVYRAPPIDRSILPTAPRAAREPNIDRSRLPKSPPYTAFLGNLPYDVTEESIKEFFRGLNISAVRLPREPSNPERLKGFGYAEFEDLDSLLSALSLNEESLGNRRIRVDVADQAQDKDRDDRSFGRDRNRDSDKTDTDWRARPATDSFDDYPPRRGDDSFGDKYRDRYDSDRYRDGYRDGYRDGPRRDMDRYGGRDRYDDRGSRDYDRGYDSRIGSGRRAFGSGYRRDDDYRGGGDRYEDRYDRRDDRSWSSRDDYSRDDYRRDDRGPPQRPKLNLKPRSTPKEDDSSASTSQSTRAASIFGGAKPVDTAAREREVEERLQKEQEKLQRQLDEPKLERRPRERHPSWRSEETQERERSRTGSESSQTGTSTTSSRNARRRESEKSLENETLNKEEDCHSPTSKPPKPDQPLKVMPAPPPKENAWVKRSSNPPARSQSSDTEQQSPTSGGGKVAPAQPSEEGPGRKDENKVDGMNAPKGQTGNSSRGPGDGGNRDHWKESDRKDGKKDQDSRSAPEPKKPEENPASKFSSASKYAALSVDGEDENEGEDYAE

Row | Binder | binding result (3' hairpin, 6-bp stem, 4-nt loop) | binding result
1 | His1-FL (structured_RNA) RNA: UCCUUUGGCCAACUGCUUAGAAGCCCAACACAACCCAAAGGCUCUUUUCAGAGCCACCCA | binds | 
2 | UCCUUUGGCCAACUGCUUAGAAGCCCAACACAACCCAAA (ssRNA) [His1-ssRNA] |  | binds
3 | GGCUGGCGUGAGGGUCUCCCUUGAUCUGAGAAUG (ssRNA) [CDK4-5'UTR] |  | binds
4 | GCUGCACUCUUAUUUUCAUUUUCAACCAAA (ssRNA) [His4-ssRNA] |  | binds
